Laboratory results taken from the supplement of paper PMC9170038.

What follows are sequences tested on K4 kissing-loop RNA reporter (assay: apparent KD of K4 kissing-loop reporter; higher = weaker reporter binding). Conditions: Eterna round: R107; input ligand: theophylline 20 uM.
Procedure: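 RNA-MaP round R107: designed RNA switches with theophylline, tryptophan, arginine or FMN aptamers are transcribed on-chip within common flanks. They are titrated with a labelled K4 kissing-loop RNA reporter in RNA-MaP buffer (100 mM Tris pH 7.5, 80 mM KCl, 4 mM MgCl2), without ligand or with the indicated ligand. Median apparent KD per design.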
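Note: bound reporter read as fluorescence of individual clusters on recovered sequencing chips by microscopy, with normalized cluster intensities fitted with a binding model.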

Row | Sequence | apparent KD of K4 kissing-loop reporter [nM]
1 | GGAGUUACCUGGGAUACCAGCCGGAGGCCCAGAGCUCGGAGUGAUGUUCUGGGAUGUUUCGGCCCUUGGCAGCUCUGGGUCUCCG [#2 Exclusion - Theophylline B Attempt #5 (HarryS)] | 433
2 | AGGUUUUACGGAGGAUAUGCACUGAGGAGGAGAAUAUAGUGAUGUUAUAUAAGAGGAAGGAGAAGAGUAGAAGGCCGUGAGGUUU [SSFMNB.M] | 204
3 | AUAAUAUGAGUGAUGUUCAUGUAAGCUGAAGGAGCGGACGAAAGUCCAGGUAGGUCGCAGCGUUCCUUUACCUCAUGAGAAGGAG [KL_SSArg-A1 #analogue] | 235
4 | UCCUGCAAUCGGCCACGAAAGUGGAUUGAUACCAGAGUCGAAAGACUCCCUUGGCAGCGAGUGAUGUUCGAAGCAGGUAAAUAAA | 514
5 | AGCGAUGUUUUCUCUAAGAGUGAUGUUUUUCGAGGACCGGUACGGCCGCCACUCGAAUAAAGUGUGCGGUAGUGAGCUGUUGACA [#18 K4 Tryptophan A Exclusion] | 580
6 | GCCGUAGAUUGAAGGAGCGAGGCUACUUAAAGACCGAGUGAUGUUCGGGAACGUGAAACUCCUCAGGUAGGUCGCAAUCUACGGC | 227
7 | UGUACAUGUCAGCGAGUGAUGUUCGACGAUACCAGACUCGAUAGAGUCCCUUGGCAGCGUAACGCAUGCCAAACUGGCAUGUACU [#SwitchBubble 9 #K4Early] | 646
8 | GACAUACCUAUGGAGGGCCGAUCGAUCAUACGAGGACCGGUACGGCCGCCACUCGUGGGCAGUGAUGUUGACCCUGGGAGGUAAG | 232
9 | UGAUAGGACAGAAGGAGCGGAAGCUAGUCAAAGACUAGCACGUUAAUAACAGGAGUGAUGUUCCAGGUAGGUCGCUGUCCUAUCU [ArgBX 24 #SwitchBubble #StaticStem] | 118
10 | ACCAUCAAAGAUGGCCAGGACUCCGCUGAUACCAGAGUGAAAACACUCCCUUGGCAGCAGGUGAGUGAUGUUCACGAGUCCUGGA [Omel KL Theo A SS B v6] | 448
11 | UGGACCUGACUCGAUAAGAGUCAAUGAGAUACCAGUGACGAAAGUCACCCUUGGCAGCUCACUGCCAGUGAUGUUGGUAGGUCCU [#SwitchBubble 3 #StaticStem] | 738
12 | GCGCGGGAGUGAUGUUCCAAGUGGUGUUAGCGAGGACCGGUACGGCCGCCACUCGUUACGGCCGGGCCGUAGGAUACACUGGCGC [Same State - Tryptophan A (Freestyle 17)] | 290
13 | CAUACGCAUGGAGGAUAUGAGAUUACUCAUAUCAUUUAAUAUUCUCAGUGAUGUUGAGAUUUGGGCUCAGAAGGCCAUGUGUAUG [Ex FMN B 15] | 343
14 | UGAUAGGACAGAAGGAGCGGAAGUGAUGUUUCCAAAAGGUAAGGUCGACAAAGUCGACCCUUCCAGGUAGGUCGCUGUCCUAUCU [ArgBX 11 #Palindromic #SwitchBubble #StaticStem] | 89.2
15 | AUAAACUUGCAGUGAUGUUGCAAGUGAGACUAGGAUAUCAGGAAGCUGAGAAGGAGUCAUCUCCUUCAAACAUCACUAUGAAGGA [whbob_SS_FMNA__2th178] | 232
16 | AAAGGAGUGGAAGGAUAUCCUGGUGUGGGUGGUGUUAGUGAUGUUGGUGGUGCAGUGAUGUUGCGCGGAGAAGGUCCGGUAUUGG [BDazzled - #2 - Exc. FMN B] | 517
17 | UGGAGUUGACGAAAAGUCAACUCCCGAGAAGGAGCGGACGAAAGUCCAGGUAGGUCGCUCGCUACCAGUGAUGUUGGUACUGAAA | 160
18 | AACGGCCAGUCGGCCGCCACUCGAUGCAGUGAUGUUGCUAACUUUCUAAAAGAGUGAUGUUCAUGGAGGACCGGGACUAGUGUAA [#30 K4 Tryptophan B Exclusion] | 255
19 | UAAUAUAAUCUGUCGUUUACAAUAUUUAGUCAGGAUAUCGUAUAUUCGAGAAGGGACACUAUCUAGUGAUGUUAGAUAUUUCGUU [JR_ExcFMNA_Sub015] | 76.6
20 | GCUCGUCAUGUCAGCGGUGGUACUGUCGAUACCAGUGCCGUAAGGCGCCCUUGGCAGCGAUGCGCUGGAGUGAUGUUCCAGCGUU [#2 Exclusion - Theophylline A Attempt #32 (HarryS)] | 120
21 | UGUGUUGUUGUGAUGUUUGGUGUUGCAGGGCAGGAUAUCGUAGAGGCGAGAAGGGCUUUUGUGCGGUAUGAGUGAUGUUUGUAGG [rrcgsmullin] | 369
22 | ACACUAUCGUCAUAGACGGUAGUGAACACACAGGAUAUGAGUGAUGUUAGAAGGGUGUAAGACUGUAUCGAAUAGAUACAGUCAA [FmnA 7 #K4BetweenAptamer #OpenEnded] | 192
23 | AAACGUUGGUCUGAUACCAGCUGAUCGGAAACGAUCUUGCUGGAGUGAUGUUCCAGGAAAAGCCCUUGGCAGCAGACCGACGAAA [MAT - Same State Theophlline B - Mod of Eli - D25] | 1260
24 | CAACCCUGCUUUUUCGAGUUUUAGGGAUGACGAGGACCGGUACGGCCGCCACUCGACUACACUGUUCAGUGAUGUUGAACGGCGG [Teveza] | 148
25 | UAUGAAUGUGGAGGAUAUUGAUUGAAUCUUGGUCUGGAGUGAUGUUCCGGGAAGCCUUGGAUUCAUCGAGAAGGCCAUGGAUAGU [#03 K4 FMN B Same State] | 109
26 | GUUCGGAUGCGGGAUACCAGCGUACCGAGCAAGCUUCGGGUAGUGAUGUUAUCUGAAUUACGCCCUUGGCAGCCCGCAUCCGGGC [clock_plus] | 212
